Assay results from paper PMC6327041 (Nature Communications, 2019).

Target: T1, KDM5A1-797 (Homo sapiens, UniProt P29375)
T1 construct: KDM5A1-797 was cloned into a pFASTBAC HTA vector; His (N, cleaved yes); made in house; host or cells: Sf21 insect cells (baculovirus)
T1 sequence (P29375 1-797): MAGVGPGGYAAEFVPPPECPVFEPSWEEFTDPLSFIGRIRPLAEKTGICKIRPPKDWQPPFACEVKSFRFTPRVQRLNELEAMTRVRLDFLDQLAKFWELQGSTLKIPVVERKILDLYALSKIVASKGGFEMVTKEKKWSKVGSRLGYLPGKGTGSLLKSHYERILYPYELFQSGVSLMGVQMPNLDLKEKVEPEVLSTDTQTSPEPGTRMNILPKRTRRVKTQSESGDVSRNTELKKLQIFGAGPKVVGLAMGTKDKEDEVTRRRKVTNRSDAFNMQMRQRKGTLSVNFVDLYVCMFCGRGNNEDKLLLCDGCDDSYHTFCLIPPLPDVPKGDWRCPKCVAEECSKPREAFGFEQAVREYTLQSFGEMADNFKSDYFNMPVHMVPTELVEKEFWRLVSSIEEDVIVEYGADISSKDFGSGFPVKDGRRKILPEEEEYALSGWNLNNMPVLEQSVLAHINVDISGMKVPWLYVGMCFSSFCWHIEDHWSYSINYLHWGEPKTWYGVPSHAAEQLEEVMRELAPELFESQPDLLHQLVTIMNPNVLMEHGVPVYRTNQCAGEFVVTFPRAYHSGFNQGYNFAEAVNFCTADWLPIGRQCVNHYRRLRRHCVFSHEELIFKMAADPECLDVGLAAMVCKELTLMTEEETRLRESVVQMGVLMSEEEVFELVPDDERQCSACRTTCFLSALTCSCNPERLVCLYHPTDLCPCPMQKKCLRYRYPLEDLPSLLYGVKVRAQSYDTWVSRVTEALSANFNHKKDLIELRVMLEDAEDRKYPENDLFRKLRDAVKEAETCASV
Assay: Lysine crosslinking MS
Settings: H3 effector peptide 40 µM, BS^3-H12/D12, 1 h, 4 °C
Experimental: Hundred micrograms of KDM5A1-797 was crosslinked with 1 mM BS^3-H12 for 1 h at 4 °C. […] After quenching with 50 mM Tris-base, the light and heavy crosslinked reaction mixtures were combined and precipitated with ice cold acetone. Crosslinked proteins were pelleted by spinning at 21,000 × g, the supernatant was removed, and the pellet was washed once with cold acetone. The precipitate was brought up in 8 M Urea, 10 mM TCEP, heated at 56 °C for 20 min, and then alkylated with 15 mM iodoacetamide (45 min at room temperature). The sample was diluted to 2 M Urea and digested […] with 0.8 µg trypsin for 4 h at 37 °C. A second aliquot of trypsin was then added and digestion was allowed to proceed overnight. […]
LC-MS analysis was performed with a Q-Exactive Plus mass spectrometer (Thermo Scientific) coupled with a nanoelectrospray ion source (Easy-Spray, Thermo) and NanoAcquity UPLC system (Waters). […] Precursor MS scans were measured in the Orbitrap scanning from 350 to 1500 m/z (mass resolution: 70,000). The ten most intense triply charged or higher precursors were isolated in the quadrupole (isolation window: 4 m/z), dissociated by HCD (normalized collision energy: 23), and the product ion spectra were measured in the Orbitrap (mass resolution: 17,500). […]
For quantitative analysis, precursor ion filtering in Skyline 4.1 was used to extract light:heavy crosslinked precursor ion signals. […]

With “H3: unmodified N-terminal H3 tail 10mer peptide (H3 Ala1-Ser10), PHD1 effector ligand” the “changes in lysine crosslinks” value was “minor changes in crosslink occupancy and distribution”.
